Source: the nanobody polyreactivity screen of Harvey et al. (2022)

test: yeast display, Sf9 membrane polyspecificity reagent, FACS + sequencing; frameworks hold sequencing errors
Procedure, shortened: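 Polyreactivity labels are assigned by the sorting gate from which each nanobody was recovered. The gates were low and high (top ~1%), set on anti-HA fluorescence for expression and streptavidin fluorescence for reagent binding. Before sorting, galactose-induced (36–48 hours) yeast display cells were stained for 1 hour at 4 °C with 10% biotinylated, detergent-solubilized Sf9 membrane reagent.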

Row | Sequence | polyreactivity (PSR sort gate)
1 | QVQLVESGGGLVQAGGSLRLSCAASGFIFYRYAMGWYRQAPGKERELVAVISGSGGRTYYADSVKGRFTISRDNAKNTVYLQMNSLKPEDTAVYYCAAVTRRRYYGHIYGYWGQGTQVTVSS | high polyreactivity
2 | QVQLVESGGGLVQAGGSLRLSCAASGFIFYRYPMGWYRQAPGKERELVAAISYSGGSTYYADSVKGRFTISRDNAKNTVYLQMNSLKQEDTAVYYCARRQVYKFRRYDYWGQGTQVTVSS | high polyreactivity
3 | QVQLVESGGGLVQAGGSLRLSCAASGFIFYRYVMGWYRQAPGKERELVAAITWSGGSTYYADSVKGRFTISRDNAKNTVYLQMNSLKPEDTAGNYCAAEWWLPSFGMDYWGQGTQVTVSS | low polyreactivity
4 | QVQLVESGGGLVQAGGSLRLSCAASGFIFYRYVMGWYRQAPGKERELVAAITWSGGSTYYADSVKGRFTISRDNAKNTVYLQMNSLKPEDTAVYYCAAEWWLPSFGMDYWGQGTQVTVSS | low polyreactivity
5 | QVQLVESGGGLVQAGGSLRLSCAASGFIFYSKAMGWYRQAPGKERELVAAISWGGGRTYYADSVKGRFTISRDNAKNTVYLQMNSLKPEDTAVYYCAAPWRRIGYSTRGYTLYDYWGQGTQVTVSS | high polyreactivity
6 | QVQLVESGGGLVQAGGSLRLSCAASGFIFYSNAMGWYRQAPGKERELVAAISRRGGSTYYADSVKGRFTISRDNAKNTVYLQMNSLKPEDTAVYYCAATFKSGMDYWGQGTQVTVSS | high polyreactivity
7 | QVQLVESGGGLVQAGGSLRLSCAASGFIFYSNDMGWYRQAPGKERELVAAITSSGGSTYYADSVKGRFTISRDNAKNTVYLQMNSLKPEDTAVYYCNADCTTFGLYSWGQGTQVTVSS | low polyreactivity
8 | QVQLVESGGGLVQAGGSLRLSCAASGFIFYSYAMGWYRQAPGKERELVAAITEDGDSTYYADSVKGRFTISRDNAKNTVYLQMNSLKPEDTAVYYCNTDLTFNGTSGDYDYWGQGTQVTVSS | low polyreactivity
9 | QVQLVESGGGLVQAGGSLRLSCAASGFIFYSYTMVWYRQAPGKERELVASISRRGGITYYADSVKGRFTISRDNAKNTVYLQMNILIPEDTAVFYCAAYSWRRQGDHYDYWGQGTKVTVSS | high polyreactivity
10 | QVQLVESGGGLVQAGGSLRLSCAASGFIFYTYAIGWYRQAHGKERELVAAISRGGRTNYADSVKGRFTISRDNAKNSVYLQMNSLKPEDPAVYYCPSSYSHRYDYWGQGTQVTVSS | high polyreactivity
11 | QVQLVESGGGLVQAGGSLRLSCAASGFIFYTYAMGWYIQAPGKERELVAAINTSGSTTNYADSVKGRFTISRDNAKNTVYLQMNSLKPEDTAVYYCAAEWNVSPYDYWGQGTQVTVSS | low polyreactivity
12 | QVQLVESGGGLVQAGGSLRLSCAASGFIFYVKAMGWYRKAPGKERELVASITNGGSTTYADSVKGRFTISRDNAKNTDDLQMNSLKPEDTAVYYCHASGLDFSYFDEFNYWGQGTQVTVSS | low polyreactivity
13 | QVQLVESGGGLVQAGGSLRLSCAASGFIFYYNAMGWYRPAPGTERELVATINNDGGSSTYADSVKGRFTISRDNAKNTVYLQMNSLKPEDTAVYYCNAEAFYFTHTVWIPYYYWGQGTQVTVLS | low polyreactivity
14 | QVQLVESGGGLVQAGGSLRLSCAASGFIFYYNAMGWYRQAPGKERELVAAISSSAGSTYYADSVKGRFTISRDNAKNTVYLQMNSLKPEDTAVYYCNADSSYRTIDSASDYDYWGQGTQVTVSS | low polyreactivity
15 | QVQLVESGGGLVQAGGSLRLSCAASGFIFYYNAMVWYRQAPGKERELVAAITDDGGGTYYADSVKGRFTISRDNAKNTVYLQMNSLKPEDTAVYYCAADGYNYEHDYWGQGTQVTVSS | low polyreactivity
16 | QVQLVESGGGLVQAGGSLRLSCAASGFIFYYYAMGWYRQAPGKERELVAAITGSGGNTYYADSVKGRFTISRDNEKNSVFFHMNSLKPEDTAVYYCNTGYDRGGDYWGQGTQVTVSS | high polyreactivity
